Article PMC3575510, “Antibiotic Inducibility of the mexXY Multidrug Efflux Operon of Pseudomonas aeruginosa: Involvement of the MexZ Anti-Repressor ArmZ” (PLoS ONE, 2013)

B1: unnamed (parent)
chain 1: MGNYIKPLSAGVALIASDSTWIEGKAIQQLQTTAELDGMCRVVGLPDLHPGRGYPVGAAFFSVGRFYPALVGNDIGCGMALWETGLALGKLSADKLEKRLGNLDLPLDETWSDCIEALDLPAREHWRALGTIGGGNHFAELQQVETVFDQAALHALGLDADRLQLLVHSGSRGLGQAILQEHVSLHGHAGLLDGSLEASAYLARHADALRFAEGNRQLIARRILERLRCDGLELLDINHNLVVPAQVDGVDGWLHRKGATPADQGVLVIPGSRGDYSYLVEPVPSAQSLFSLAHGAGRKWQRGECRERLAARFSVDQLGRTRLGSRVICGDRQLIYEEAPEAYKGIDSVVGALLEAGLLRLVARLKPVLTYKTRGECCR
chain 2: MARKTKEESQKTRDGILDAAERVFLEKGVGTTAMADLADAAGVSRGAVYGHYKNKIEVCLAMCDRAFGQIEVPDENARVPALDILLRAGMGFLRQCCEPGSVQRVLEILYLKCERSDENEPLLRRRELLEKQGQRFGLRQIRRAVERGELPARLDVELASIYLQSLWDGICGTLAWTERLRDDPWNRAERMFRAGLDSLRSSPYLLLADA

Variants of: B1
Test: bacterial 2-hybrid assay (β-galactosidase activity in E. coli SU202)
Conditions: with partner chain of the complex shown; IPTG-induced cells; read off a plot

| Variant | response [Miller Units] |
| --- | --- |
| chain 1 MGNYIKPLSAGVALIASDSTWIEGKAIQQLQTTAELDGMCRVVGLPDLHPGRGYPVGAAFFSVGRFYPALVGNDIGCGMALWETGLALGKLSADKLEKRLGNLDLPLDETWSDCIEALDLPAREHWRALGTIGGGNHFAELQQVETVFDQAALHALGLDADRLQLLVHSGSRGLGQAILQEHVSLHGHAGLLDGSLEASAYLARHADALRFAEGNRQLIARRILERLRCDDLELLDINHNLVVPAQVDGVDGWLHRKGATPADQGVLVIPGSRGDYSYLVEPVPSAQSLFSLAHGAGRKWQRGECRERLAARFSVDQLGRTRLGSRVICGDRQLIYEEAPEAYKGIDSVVGALLEAGLLRLVARLKPVLTYKTRGECCR [chain 1 G231D] | 730 |
| chain 1 MGNYIKPLSAGVALIASDSTWIEGKAIQQLQTTAELDGMCRVVGLPDLHPGRGYPVGAAFFSVGRFYPALVGNDIGCGMALWETGLALGKLSADKLEKRLGNLDLPLDETWSDCIEALDLPAREHWRALGTIGGGNHFAELQQVETVFDQAALHALGLDADRLQLLVHSGSRGLGQAILQEHVSLHGHAGLLDGSLEASAYLARHADALRFAEGNRQLIARRILERLRCDGLELLDINHNLVVPAQVDGVDSWLHRKGATPADQGVLVIPGSRGDYSYLVEPVPSAQSLFSLAHGAGRKWQRGECRERLAARFSVDQLGRTRLGSRVICGDRQLIYEEAPEAYKGIDSVVGALLEAGLLRLVARLKPVLTYKTRGECCR [chain 1 G252S] | 700 |
| chain 1 MGNYIKPLSAGVALIASDSTWIEGKAIQQLQTTAELDGMCRVVGLPDLHPGRGYPVGAAFFSVGRFYSALVGNDIGCGMALWETGLALGKLSADKLEKRLGNLDLPLDETWSDCIEALDLPAREHWRALGTIGGGNHFAELQQVETVFDQAALHALGLDADRLQLLVHSGSRGLGQAILQEHVSLHGHAGLLDGSLEASAYLARHADALRFAEGNRQLIARRILERLRCDGLELLDINHNLVVPAQVDGVDGWLHRKGATPADQGVLVIPGSRGDYSYLVEPVPSAQSLFSLAHGAGRKWQRGECRERLAARFSVDQLGRTRLGSRVICGDRQLIYEEAPEAYKGIDSVVGALLEAGLLRLVARLKPVLTYKTRGECCR [chain 1 P68S] | 610 |
| chain 1 MGNYIKPLSAGVALIASDSTWIEGKAIQQLQTTAELDGMCRVVGLPDLHPGRGYPVGAAFFSVGRFYPALVGNDIGCGMALWETGLALGKLSADKLEKRLGNLDLPLDETWSDCIEALDLPAREHWRALGTIGGGNHFAELQQVETVFDQAALHALGLDADRLQLLVHSGSRGLGQAILQEHVSLHGHAGLLDGSLEASAYLARHADALRFAEGNCQLIARRILERLRCDGLELLDINHNLVVPAQVDGVDGWLHRKGATPADQGVLVIPGSRGDYSYLVEPVPSAQSLFSLAHGAGRKWQRGECRERLAARFSVDQLGRTRLGSRVICGDRQLIYEEAPEAYKGIDSVVGALLEAGLLRLVARLKPVLTYKTRGECCR [chain 1 R216C] | 720 |
| chain 1 MGNYIKPLSAGVALIASDSTWIEGKAIQQLQTTAELDGMCRVVGLPDLHPGRGYPVGAAFFSVGRFYPALVGNDISCGMALWETGLALGKLSADKLEKRLGNLDLPLDETWSDCIEALDLPAREHWRALGTIGGGNHFAELQQVETVFDQAALHALGLDADRLQLLVHSGSRGLGQAILQEHVSLHGHAGLLDGSLEASAYLARHADALRFAEGNRQLIARRILERLRCDGLELLDINHNLVVPAQVDGVDGWLHRKGATPADQGVLVIPGSRGDYSYLVEPVPSAQSLFSLAHGAGRKWQRGECRERLAARFSVDQLGRTRLGSRVICGDRQLIYEEAPEAYKGIDSVVGALLEAGLLRLVARLKPVLTYKTRGECCR [chain 1 G76S] | 470 |
| chain 1 MGNYIKPLSAGVALIASDSTWIEGKAIQQLQTTAELDGMCRVVGLPDLHPGRGYPVGAAFFSVGRFYPALVGNDIGCGMALWETGLALGKLSADKLEKRLGNLDLPLDETWSDCIEALDLPAREHWRALGTIGGGNHFAELQQVETVFDQAALHALGLDADRLQLLVHSGSRGLGQAILQEHVSLHGHAGLLDGSLEASAYLARHADALRFAEGNRQLIAWRILERLRCDGLELLDINHNLVVPAQVDGVDGWLHRKGATPADQGVLVIPGSRGDYSYLVEPVPSAQSLFSLAHGAGRKWQRGECRERLAARFSVDQLGRTRLGSRVICGDRQLIYEEAPEAYKGIDSVVGALLEAGLLRLVARLKPVLTYKTRGECCR [chain 1 R221W] | 680 |
| chain 1 MGNYIKPLSAGVALIASDSTWIEGKAIQQLQTTAELDGMCRVVGLPDLHPGRGYPVGAAFFSVGRFYPALVGNDIGCGMALWETGLALGKLSADKLEKRLGNLDLPLDETWSDCIEALDLPAREHWRALGTIGGGNHFAELQQVETVFDQAALHALGLDADRLQLLVHSGSRGLGQAILQEHVSLHGHAGLLDGSLEASAYLARHADALRFAEGNRQLIAQRILERLRCDGLELLDINHNLVVPAQVDGVDGWLHRKGATPADQGVLVIPGSRGDYSYLVEPVPSAQSLFSLAHGAGRKWQRGECRERLAARFSVDQLGRTRLGSRVICGDRQLIYEEAPEAYKGIDSVVGALLEAGLLRLVARLKPVLTYKTRGECCR [chain 1 R221Q] | 510 |
